The target in the experiment is BrxU, untagged (GmrSD-family Type IV restriction enzyme from Escherichia fergusonii) (Escherichia fergusonii).

“IPI* (mature, active form of phage T4 internal protein I, product of ip1) (natural protein)” came in with an in vitro digestion of glc-5mdC pUC19 DNA by untagged BrxU (1 mM ATP) after incubation with a titration of IPI*; excess of IPI* sufficient for robust inhibition of 30 fold excess.

These data come from publication PMC12409352.
